system: Escherichia coli TOP10; experiment: shrunken log2 fold change of peptide-encoding DNA abundance (4.5 h post-induction vs induction); higher = less antimicrobial activity (less host growth inhibition); conditions: time post-induction: 4.5 h; library: site-saturation at positions 5, 18, 19, 20
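Also: peptides expressed intracellularly from a pBAD plasmid library in pooled LB shake-flask culture, induced with 0.3% L-arabinose, DNA abundance read by NGS, three biological replicates, DESeq2 with apeglm shrinkage.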

RRIRGRPPRLPRPRPRPWEPPRP and RRIRKRPPRLPRPRPRPGFLPRP are within 0.2 log units of each other in “shrunken log2 fold change” value: 0.177 for the first, 0.203 for the second.

First: RRIRARPPRLPRPRPRPKVEPRP
Second: RRIRHRPPRLPRPRPRPFRKPRP
The “shrunken log2 fold change” value of the first is higher: 0.571 for the first, 0.00884 for the second.

RRIRYRPPRLPRPRPRPYKPPRP and RRIRQRPPRLPRPRPRPNWFPRP are within 0.2 log units of each other in “shrunken log2 fold change” value: -0.0475 for the first, -0.151 for the second.

RRIRLRPPRLPRPRPRPYHMPRP and RRIRERPPRLPRPRPRPHEQPRP are within 0.2 log units of each other in “shrunken log2 fold change” value: -0.146 for the first, -0.0112 for the second.

Going from RRIRSRPPRLPRPRPRPRVDPRP to RRIRNRPPRLPRPRPRPSNSPRP, the “shrunken log2 fold change” value falls from 0.0568 to -0.235.

Going from RRIRRRPPRLPRPRPRPWQPPRP to RRIRMRPPRLPRPRPRPDSQPRP, the “shrunken log2 fold change” value rises from -0.108 to 1.35.

Compared with RRIRKRPPRLPRPRPRPKWKPRP, RRIRGRPPRLPRPRPRPYSMPRP is lower in “shrunken log2 fold change” value: 0.479 for the first, 0.00971 for the second.

RRIRNRPPRLPRPRPRPNAQPRP and RRIRPRPPRLPRPRPRPSSKPRP are within 0.2 log units of each other in “shrunken log2 fold change” value: -0.119 for the first, -0.217 for the second.

First: RRIRKRPPRLPRPRPRPEPWPRP
Second: RRIRCRPPRLPRPRPRPTESPRP
The “shrunken log2 fold change” value of the first is higher: 0.895 for the first, 0.101 for the second.

Compared with RRIRNRPPRLPRPRPRPDQVPRP, RRIRMRPPRLPRPRPRPAQAPRP is higher in “shrunken log2 fold change” value: -0.148 for the first, 0.107 for the second.

Compared with RRIRIRPPRLPRPRPRPRWWPRP, RRIRYRPPRLPRPRPRPCHPPRP is lower in “shrunken log2 fold change” value: 0.655 for the first, -0.669 for the second.

RRIRNRPPRLPRPRPRPWTTPRP and RRIRPRPPRLPRPRPRPCPTPRP are within 0.2 log units of each other in “shrunken log2 fold change” value: -0.0122 for the first, 0.0557 for the second.

First: RRIRDRPPRLPRPRPRPINHPRP
Second: RRIRWRPPRLPRPRPRPTSDPRP
The “shrunken log2 fold change” value of the first is lower: -0.229 for the first, -0.0119 for the second.

Compared with RRIRWRPPRLPRPRPRPTMMPRP, RRIRIRPPRLPRPRPRPNKIPRP is lower in “shrunken log2 fold change” value: 0.113 for the first, -0.634 for the second.

First: RRIRFRPPRLPRPRPRPSIMPRP
Second: RRIRSRPPRLPRPRPRPPKRPRP
The “shrunken log2 fold change” value of the first is lower: -0.65 for the first, 0.626 for the second.

First: RRIRTRPPRLPRPRPRPKPRPRP
Second: RRIRKRPPRLPRPRPRPEVAPRP
The “shrunken log2 fold change” value of the first is lower: 0.692 for the first, 1.9 for the second.

RRIRFRPPRLPRPRPRPIGTPRP and RRIRSRPPRLPRPRPRPMCRPRP are within 0.2 log units of each other in “shrunken log2 fold change” value: -0.329 for the first, -0.147 for the second.

First: RRIRARPPRLPRPRPRPWNVPRP
Second: RRIRPRPPRLPRPRPRPECCPRP
The “shrunken log2 fold change” value of the first is lower: -0.181 for the first, 0.526 for the second.

Compared with RRIRERPPRLPRPRPRPAAQPRP, RRIRQRPPRLPRPRPRPPNFPRP is lower in “shrunken log2 fold change” value: 0.261 for the first, -0.0994 for the second.

Going from RRIRFRPPRLPRPRPRPVMIPRP to RRIRMRPPRLPRPRPRPFHWPRP, the “shrunken log2 fold change” value falls from 0.122 to -0.184.

Going from RRIRPRPPRLPRPRPRPADKPRP to RRIRMRPPRLPRPRPRPNDNPRP, the “shrunken log2 fold change” value rises from 0.0949 to 0.504.

Compared with RRIRVRPPRLPRPRPRPGIVPRP, RRIRHRPPRLPRPRPRPHPIPRP is lower in “shrunken log2 fold change” value: 0.106 for the first, -0.107 for the second.

RRIRLRPPRLPRPRPRPTANPRP and RRIRQRPPRLPRPRPRPGICPRP are within 0.2 log units of each other in “shrunken log2 fold change” value: 0.329 for the first, 0.156 for the second.

RRIRPRPPRLPRPRPRPQVSPRP and RRIRVRPPRLPRPRPRPFVAPRP are within 0.2 log units of each other in “shrunken log2 fold change” value: -0.00288 for the first, -0.118 for the second.

RRIRFRPPRLPRPRPRPAFTPRP and RRIRTRPPRLPRPRPRPGSHPRP are within 0.2 log units of each other in “shrunken log2 fold change” value: -0.224 for the first, -0.336 for the second.

RRIRVRPPRLPRPRPRPRWSPRP and RRIRSRPPRLPRPRPRPLVEPRP are within 0.2 log units of each other in “shrunken log2 fold change” value: 0.209 for the first, 0.28 for the second.

Compared with RRIRSRPPRLPRPRPRPFGVPRP, RRIRKRPPRLPRPRPRPADTPRP is higher in “shrunken log2 fold change” value: -0.448 for the first, 1.03 for the second.

Compared with RRIRLRPPRLPRPRPRPHWMPRP, RRIRKRPPRLPRPRPRPTADPRP is higher in “shrunken log2 fold change” value: -0.0826 for the first, 0.345 for the second.

RRIRSRPPRLPRPRPRPMWDPRP and RRIRDRPPRLPRPRPRPATFPRP are within 0.2 log units of each other in “shrunken log2 fold change” value: 0.293 for the first, 0.222 for the second.

First: RRIRKRPPRLPRPRPRPGAMPRP
Second: RRIRFRPPRLPRPRPRPNYAPRP
The “shrunken log2 fold change” value of the first is higher: 0.639 for the first, -0.127 for the second.

RRIRNRPPRLPRPRPRPRVAPRP and RRIRYRPPRLPRPRPRPIEQPRP are within 0.2 log units of each other in “shrunken log2 fold change” value: 0.111 for the first, -0.00931 for the second.

RRIRVRPPRLPRPRPRPVIMPRP and RRIRIRPPRLPRPRPRPRQEPRP are within 0.2 log units of each other in “shrunken log2 fold change” value: -0.227 for the first, -0.131 for the second.

Compared with RRIRDRPPRLPRPRPRPMNMPRP, RRIRKRPPRLPRPRPRPQNTPRP is higher in “shrunken log2 fold change” value: -0.308 for the first, 0.00556 for the second.

Compared with RRIRRRPPRLPRPRPRPEVKPRP, RRIRLRPPRLPRPRPRPKWKPRP is lower in “shrunken log2 fold change” value: 0.418 for the first, 0.0281 for the second.

RRIRIRPPRLPRPRPRPQEWPRP and RRIRCRPPRLPRPRPRPLMTPRP are within 0.2 log units of each other in “shrunken log2 fold change” value: -0.0108 for the first, -0.0133 for the second.

RRIRHRPPRLPRPRPRPEKHPRP and RRIRLRPPRLPRPRPRPIPLPRP are within 0.2 log units of each other in “shrunken log2 fold change” value: 0.0511 for the first, 0.0264 for the second.

Going from RRIRVRPPRLPRPRPRPSDIPRP to RRIRDRPPRLPRPRPRPFWVPRP, the “shrunken log2 fold change” value rises from -0.965 to -0.222.

In the case of RRIRARPPRLPRPRPRPPTQPRP, the “shrunken log2 fold change” value was 0.718.
